Laboratory results as given in patent US20090111753A1, “Nogo-A Polypeptide Fragments, Variant Nogo Receptor-1 Polypeptides, and Uses Thereof” (Yale University, priority 2004, published 2009).
Changes are numbered by the printed parent chain. Numbers in names are those of the source. Active and inactive are the words of the source; unless stated, no cut-off is given here. Each block holds one molecule with its values, some of them ahead of it. No end group written: not given here. *: point of attachment. Biotin = O=C1N[C@H]2[C@H](CS[C@H]2CCCCC(=O)*)N1

Experiments:
E13 chick DRG neurons = test: cDRG neurite outgrowth assay; format: cell-based
Experimental: FIG. 2D. Differential effects of Amino-Nogo fragments on neurite outgrowth. Dissociated neurons from E13 chick DRGs were plated on 96 well dishes coated with lpmol protein per well and stained for neurofilament localization.
FIG. 2E. Neurite length per neuron were measured and plotted as percentage of PBS control with increasing concentration of dried protein for experiment described in […].
FIG. 6C. B24/32 peptide inhibits neurite outgrowth. Dissociated neurons from E13 chick DRG were plated onto 96 well dishes coated with 500 pmol of dried peptides as indicated and stained for neurofilament localization.
FIG. 6D. Neurite length per neuron was measured and plotted as percentage of PBS control for experiments as in (C).
(§1) It has been recognized that the Amino-Nogo-A protein inhibits non-neuronal cell spreading and axonal outgrowth when the protein is substrate bound (Chen, M. S., et al., Nature 403:434-439 (2000); Fournier, A. E., et al., Nature 409:341-346 (2001)). […] The later domain has been termed Δ20. To determine whether the NgR-interacting aa of Amino-Nogo-A described in Example 1 regulate cell spreading and axonal outgrowth, various fragments were expressed as GST fusion proteins and purified from E. coli. To generate GST fusion proteins, amino Nogo fragments were cloned in pGEX2T (Amersham Pharmacia). Native and soluble GST fusion proteins were expressed and purified as described (GrandPre, T., et al., Nature 403:439-444 (2000)). COS-7 binding assays were done as described (Fournier, A. E., et al., Nature 409:341-346 (2001)). Bound AP to COS-7 cells was measured using NIH image software. Fibroblast spreading and cDRG outgrowth assay were done as described (Fournier, A. E., et al., Nature 409:341-346 (2001)) with some modifications. Briefly, 50 μl of purified GST fusion protein or peptides diluted in PBS was pipetted into polylysine precoated 96 well plates (Becton Dickson Biocoat plates) and dried overnight at room temperature. For fibroblast spreading assay, subconfluent COS-7 cells were then plated for 1 hour in serum containing medium before fixation and staining with rho damine-phalloidin.
The same GST-Amino-Nogo proteins were tested for their ability to reduce neurite outgrowth from chick E13 DRG neurons. For cDRG outgrowth assay, dissociated E13 cDRG neurons were plated for 6 hours before fixation. […] Cell area, number of attached cells and neurite length were measured using the Imageexpress machine and software (Axon Instrument).
We reasoned that fusing the 24 aa segment of Amino-Nogo-A to NEP32 antagonist peptide might create a high affinity antagonist with a potency similar to the binding of AP-B4C-66 to NgR. […] Cell area, number of attached cells and neurite length were measured using the linageexpress machine and software (Axon Instrument).

[1] = target: T1, human NgR1 alanine mutant 163 (human, UniProt Q9BZR6 27-473); test: AP-ligand binding, COS-7
T1 sequence: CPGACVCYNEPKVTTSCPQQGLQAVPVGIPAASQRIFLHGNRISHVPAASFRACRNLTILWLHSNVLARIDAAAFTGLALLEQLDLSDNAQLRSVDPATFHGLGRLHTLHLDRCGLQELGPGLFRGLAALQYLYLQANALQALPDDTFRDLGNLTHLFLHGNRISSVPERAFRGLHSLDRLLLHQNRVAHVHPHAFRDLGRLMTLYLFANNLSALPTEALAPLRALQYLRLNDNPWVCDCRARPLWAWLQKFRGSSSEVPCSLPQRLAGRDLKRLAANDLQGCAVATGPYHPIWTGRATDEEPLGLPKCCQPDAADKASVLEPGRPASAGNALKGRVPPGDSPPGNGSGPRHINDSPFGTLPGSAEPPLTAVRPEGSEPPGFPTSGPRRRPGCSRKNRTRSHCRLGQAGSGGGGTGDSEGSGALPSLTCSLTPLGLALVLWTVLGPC

[2] = target: T2, human NgR1 alanine mutant 158, 160 (human, UniProt Q9BZR6 27-473); test: AP-ligand binding, COS-7
T2 sequence: T1 sequence with Y132A, Y134A, A137D

[3] = target: T3, human NgR1 alanine mutant 182, 186 (human, UniProt Q9BZR6 27-473); test: AP-ligand binding, COS-7
T3 sequence: T1 sequence with A137D, H156A, H160A

[4] = target: T4, human NgR1 alanine mutant 133, 136 (human, UniProt Q9BZR6 27-473); test: AP-ligand binding, COS-7
T4 sequence: T1 sequence with H107A, H110A, A137D

[5] = target: T5, human NgR1 alanine mutant 82, 179 (human, UniProt Q9BZR6 27-473); test: AP-ligand binding, COS-7
T5 sequence: T1 sequence with N56A, A137D, N153A

[6] = target: T6, human NgR1 alanine mutant 232, 234 (human, UniProt Q9BZR6 27-473); test: AP-ligand binding, COS-7
T6 sequence: T1 sequence with A137D, Y206A, F208A

COS-7 cells = test: Fibroblast spreading assay on dried GST fusion protein; format: cell-based; conditions: GST fusion protein presented as dried substrate
Experimental: FIG. 2A. Effects of Amino-Nogo fragments on fibroblast spreading and neurite outgrowth. Different effects of Amino-Nogo fragments on fibroblast spreading. COS-7 cells were allowed to attach and spread on slides with spots coated with 50 ng of dried GST fusion protein as indicated and stained for F-actin. GST-A: fusion protein of GST and A fragment (FIG. 1) of Amino-Nogo. GST-A, GST-B, GST-Δ20, GST-B4 and GST-B4C: fusion protein of GST and A, B, Δ20, B4 or B4C fragment (FIG. 1) of Amino-Nogo, respectively.
FIG. 2B. COS-7 cell area for experiments as in (A) was measured and plotted.
FIG. 2C. COS-7 cells were allowed to attach and spread on 96 well dishes coated with dried GST fusion proteins as indicated. Number of attached cells were counted and plotted as a function of the amount of various proteins dried per well in a 96 well dish.
as §1, with “For fibroblast spreading assay, subconfluent COS-7 cells were then plated for 1 hour in serum containing medium before fixation and staining with rho damine-phalloidin.” left out

Molecule: Biotin-IFSAELSKTSVVDLLYWRDIKKTG [carboxyl 24 aa segment of Amino-Nogo-A]
effect on Nogo-66 action on neurite outgrowth (E13 chick DRG neurons; biotinylated peptide, FIGS. 6C and 6D): does not block or enhance Nogo-66 action on neurite outgrowth

Molecule: biotin-IFSAELSKTSVVDLLYWRDIKKTGGRIYKGVIQAIQKSDEGHP FRAYLESEVAISEE [24-32 fusion peptide]
axon outgrowth from DRG neurons (E13 chick DRG neurons; 500 pmol of dried biotinylated peptide per well): potently inhibited axon outgrowth

binding result [1]: no binding
binding result [2]: no binding
binding result [3]: no binding
binding result [4]: no binding
binding result [5]: no binding
binding result [6]: no binding
B1: AP-fused Amino-Nogo fragment B4C (a.a. 950-1018) (ligand)
chain: LLPPDVSALATQAEIESIVKPKVLVKEAEKKLPSDTEKEDRSPSAIFSAELSKTSVVDLLYWRDIKKTG
notes: also called AmNg B4C; AP-B4C; not shown: alkaline phosphatase (AP), vector pcAP6

binding result [1]: no binding
binding result [2]: no binding
binding result [3]: no binding
binding result [4]: no binding
binding result [5]: no binding
binding result [6]: no binding
B2: AP-Nogo-66 (ligand, UniProt Q9NQC3 1055-1120, looked up)
chain: RIYKGVIQAIQKSDEGHPFRAYLESEVAISEELVQKYSNSALGHVNCTIKELRRLFLVDDLVDSLK
notes: domain: Nogo-66; construct described elsewhere (Fournier 2001); also called AP-Ng66; Ng66; not shown: alkaline phosphatase (AP); construct described elsewhere

B3: B fragment of Amino-Nogo: fusion protein of GST and B fragment of Amino-Nogo (protein, UniProt Q9NQC3 622-1018, looked up, fragment)
chain: SAVPSAGASVIQPSSSPLEASSVNYESIKHEPENPPPYEEAMSVSLKKVSGIKEEIKEPENINAALQETEAPYISIACDLIKETKLSAEPAPDFSDYSEMAKVEQPVPDHSELVEDSSPDSEPVDLFSDDSIPDVPQKQDETVMLVKESLTETSFESMIEYENKEKLSALPPEGGKPYLESFKLSLDNTKDTLLPDEVSTLSKKEKIPLQMEELSTAVYSNDDLFISKEAQIRETETFSDSSPIEIIDEFPTLISSKTDSFSKLAREYTDLEVSHKSEIANAPDGAGSLPCTELPHDLSLKNIQPKVEEKISFSDDFSKNGSATSKVLLLPPDVSALATQAEIESIVKPKVLVKEAEKKLPSDTEKEDRSPSAIFSAELSKTSVVDLLYWRDIKKTG
modifications: GST fusion
COS-7 cell attachment and spreading (COS-7 cells): active
